Data taken from US20070167369A1 (published 2007).

Target: HUVECs
Experiment: cell binding (Scatchard, Abs. 490 nm)

Kd: 1000 nM
B1: Regenin (other)
chain: MGTVMDVLKGDNRFSMLVAAIQSAGLTETLNREGVYTVFAPTNEAFRALPPRERSRLLGDAKELANILKYHIGDEILVSGGIGALVRLKSLQGDKLEVSLKNNVVSVNKEPVAEPDIMATNGVVHVITNVLMGTVMDVLKGDNRFSMLVAAIQSAGLTETLNREGVYTVFAPTNEAFRALPPRERSRLLGDAKELANILKYHIGDEILVSGGIGALVRLKSLQGDKLEVSLKNNVVSVNKEPVAEPDIMATNGVVHVITNVLMGTVMDVLKGDNRFSMLVAAIQSAGLTETLNREGVYTVFAPTNEAFRALPPRERSRLLGDAKELANILKYHIGDEILVSGGIGALVRLKSLQGDKLEVSLKNNVVSVNKEPVAEPDIMATNGVVHVITNVLMGTVMDVLKGDNRFSMLVAAIQSAGLTETLNREGVYTVFAPTNEAFRALPPRERSRLLGDAKELANILKYHIGDEILVSGGIGALVRLKSLQGDKLEVSLKNNVVSVNKEPVAEPDIMATNGVVHVITNVL
